System: T1, CC(=O)N[C@H]1[C@H](Oc2ccc3c(C)cc(=O)oc3c2)O[C@H](CO)[C@@H](O[C@@H]2O[C@H](CO)[C@@H](O)[C@H](O)[C@H]2NC(C)=O)[C@@H]1O
T1 construct: single GH18 catalytic domain C1 (core 1613-1855 and 1940-1988, insertion domain 1856-1939); His-tag purified from Pichia pastoris GS115
Experiment: fluorescence of released 4-methylumbelliferone
Type: biochemical, Ostrinia furnacalis
Conditions: pH 6.0, 20 mM sodium phosphate, 303 K, 20 min, 30.0 °C
Description: fluorescence of released 4-methylumbelliferone on OfChtII-C1

Substance: OfChtII-C1 (Ostrinia furnacalis; A1877I/D1864N/D1876G/DEL1865-1874/G1863E/K1875R/N1878H)
- Km: 15.52 ± 0.98 µM
- kcat: 0.5498 ± 0.0108 s⁻¹
- kcat/Km: 35500 M⁻¹ s⁻¹

From article PMC5827449, “Structural analysis of group II chitinase (ChtII) catalysis completes the puzzle of chitin hydrolysis in insects” (The Journal of Biological Chemistry, 2018)
